Key:
[1] = biological target: PEDV/S(1–1320) + CMP + Tags (porcine epidemic diarrhea virus (PEDV), strain 83P-5 | chicken); experiment: SEC; Superose 6 increase 10/300 GL in 1 x PBS; markers thyroglobulin 669 kDa, ferritin 440 kDa, aldolase 158 kDa
[2] = biological target: PEDV/S(1–1320) + CMP + Tags (porcine epidemic diarrhea virus (PEDV), strain 83P-5 | chicken); experiment: native gel or EMSA; Blue-native PAGE, 3 to 12% Bis-Tris NativePAGE gel, 115 min at 150 V, CBB stain; purified S protein

Substance: PEDV/S(1–1320) + CMP + Tags
- stoichiometry N [1]: 3
- stoichiometry N [2]: 3

— PMC8261802
